Assay: soluble on expression in E. coli; label from the status in PepcDB or PDB records

Sequence | soluble on expression in E. coli
KQKKMQAMIVTSKPYCVIKRIHRDLHRGVTCINDAEGTYNHEKKAVLITILTREEFSDFKYLMLKADPKAFVSVAENVHIIGRFVDDD | not soluble
PSVQVTDGQINGESVRFIAVVPDANNHYPRAAGGEVGLLEGWTLAKVVNETIAADADRPVKRPIVAVIDVPSQAYGRREEAFGIHQALAGAAGAYAKARLAGHPVIGLIVGKAMSGAFLAHGYQANRLIAFNDSGVLVHAMGKASAARITLRTVEALEKLAATIPPMAY | not soluble
MQGKALQDFVIDKIDDLKGQDIIALDVQGKSSITDCMIICTGTSSRHVMSIADHVVQESRAAGLLPLGVEGENSADWIVVDLGDVIVHVMQEESRRLYELEKLWS | soluble
MADEEDPCGGGKKNPRKRCQPDVDPEEDSEPDLDGPQPPFRGRSSTVTDAVRQTAMEFRKRARSDEFRPAQQPEQSVVAVKPPTTSAPVTPFPANLPVSEQLEDLSLLPGVRRVRPLPRSRYPVANDPFDKFSAYSGPGSSQQAVPRTISKISEESGSGSGSGSGNDSSGSSGPTRMSGQVPSTSGPPPPRPPPAGHQNPFLGNQPSTSNTSEPSTSTQGVSPSRTSKISKKKAHQAGLHSKGSSEDSTDSGESKPSSKQPPKKSPKSNKNDPNAPGPSRRRDDDDDGVQGGSSEGSSESL | soluble
NIGSGTDEKTATARAKVVDWCNELVIASPSTKCELLAKVQETVLGSCAELAEEFLESVLSLAHDSNMEVRKQVVAFVEQVCKVKVELLPHVINVVSMLLRDNSAQVIKRVIQACGSIYKNGLQYLCSLMEPGDSAEQAWNILSLIKAQILDMIDNENDGIRTNAIKFLEGVVVLQSFADEDSLKRDGDFSLADVPDHCTLFRREKLQEEGNNILDILLQFHGTTHISSVNLIACTSSLCTIAKMRPIFMGAVVEAFK | soluble
MDFECQFVCELKELAPVPALLIRTQTTMSELGSLFEAGYHDILQLLAGQGKSPSGPPFARYFGMSAGTFEVEFGFPVEGGVEGSGRVVTGLTPSGKAASSLYIGPYGEIEAVYDALMKWVDDNGFDLSGEAYEIYLDNPLEHHHHHH | not soluble
MPADPRNAGKDKGNLQMELQNLLTSARIRKMEYEAIVEELEEDELKYDLFEYQDYLENYIMPYVERAYKNGSKELIGMAEEVKSIFEEIIDMIKARIEKK | not soluble
MGSDKIHHHHHHMTSRTPLVSVLPDFPWDSLASAKAKAASHPDGIVNLSVGTPVDPVAPSIQIALAEAAGFSGYPQTIGTPELRAAIRGALERRYNMTKLVDASLLPVVGTKEAIALLPFALGISGTVVIPEIAYPTYEVAVVAAGCTVLRSDSLFKLGPQIPSMMFINSPSNPTGKVLGIPHLRKVVKWAQENNVILAADECYLGLGWDDENPPISILDPRVCDGDHTNLIAIHSLSKTSNLASYRAGYLVGDPALIGELTEVRKNLGLMVPFPIQQAMIAALNDDDQEAGQKLTYAIRRAKLMRALLESGFQVDNSEAGLYLWATREEPCRDTVDWFAERGILVAPGDFYGPRGAQHVRVAMTETDERVDAFVSRLS | not soluble
FEKMKKEVEEILYNLKKEGGKYHCILAFSGGKDSVLALKLLKEKFKLNPLCVMVDNKYMAKEAIENALNVTKHYQVDLMILNRDYTDLFEDAIKRGESPCRRCSRLILREVWRVTKLLGLKYIITGHELP | not soluble
MVEISKRIISTFGKTNAHFKLITENDRVLVGLSGGKDSLLLATLLARLARHAPFKFEFKALTVDYGIGEDFSYLQNYCAENGIPHEVFKTNIMEVMQEKRRENSSYCSFCSRLRRGALYSKALEGGYNKLALGHHLDDAAESFFMNFSYNGAIRSMPPIYRAYNGLWVIRPLIWLRERQMVDFVLKNNLQTPLCNC | not soluble
MSLSHTANPCCSHPCQNRGVCMSVGFDQYKCDCTRTGFYGENCSTPEFLTRIKLFLKPTPNTVHYILTHFKGFWNVVNNIPFLRNAIMSYVLTSRSHLIDSPPTYNADYGYKSWEAFSNLSYYTRALPPVPDDCPTPLGVKGKKQLPDSNEIVEKLLLRRKFIPDPQGSNMMFAFFAQHFTHQFFKTDHKRGPAFTNGLGHGVDLNHIYGETLARQRKLRLFKDGKMKYQIIDGEMYPPTVKDTQAEMIYPPQVPEHLRFAVGQEVFGLVPGLMMYATIWLREHNRVCDVLKQEHPEWGDEQLFQTSRLILIGETIKIVIEDYVQHLSGYHFKLKFDPELLFNKQFQYQNRIAAEFNTLYHWHPLLPDTFQIHDQKYNYQQFIYNNSILLEHGITQFVESFTRQIAGRVAGGRNVPPAVQKVSQASIDQSRQMKYQSFNEYRKRFMLKPYESFEELTGEKEMSAELEALYGDIDAVELYPALLVEKPRPDAIFGETMVEVGAPFSLKGLMGNVICSPAYWKPSTFGGEVGFQIINTASIQSLICNNVKGCPFTSFSVPDPELIKTVTINASSSRSGLDDINPTVLLKERSTELEGHHHHHH | not soluble
MKRHYLFSICILTLLLLAACGSSATEDHELEVPEDQETIEIDGEEEDSSQPVFSDEEALVVDDLLEEESRGEEATEHSEPIEEDTSTPSEASGSENVEETEQQPADENNQAFALNVKKFKLELEWQDGDELEMEYEQKKNEKGKAKVEWDGAHKEKMSGKQAVEWMEDFLSQLDLSEGTNSDRLKSQVYAILDIDPSEVEELDLEIEFFDMAGDPLEHHHHHH | not soluble
MITVPHSRKVELDEIDRAILRLLQEDGRMSYSEISRRINVPESTVRARVNRLVKEGVIRKFAALINPFKAGYEIVAFIAVDAEPAKVKQVVEELAKFPEVDVLGIVTGAHDIFMQVTVKDLQELERFILEKMAKIDGIKSTETSILTSVKKWGYARVF | soluble
MGSDKIHHHHHHMNIAIDARGINLYRGTGIGTYTENLVRELLNIDEENSYTLYWYGNNYKDFIKSNTKINIVSKGCHSFFEKCYFPENIIKNSIEIYHVPQNGIGLDQNVSCIKVSTVHDLIPYIMPETVGKGYLLKFLKNMPFIIENSDAILTVSEYSKKDILKYFPINEDKIYVTPLAANYNYKPLSREHCKKFIEKNYSISDPFVLYLGGFSKRKNVRNLILAFADASKKLSKKHNLVIIGLCRDELESLKDLCRHLNISNEVIFTGYIGERFLPVFYNACELFVYPSLYEGFGLPVLEAMSCKTPVVTSNISSIPEIAGDSAVLINPLDTSELRDAILNILEDSKLKQKLSIEGFNRSRKFSWKNTSKKTLEAYSNIYNTFA | not soluble
MGSDKIHHHHHHAQTDPSQLKKEGSDAFNAKNYPVAYAKFSEYLKQTNNQDSAIAYYCGMAADEVKKYAEAVTFFDIAIQKKFNIGNAYARKALALDAMKKTDEYVATLEEGLKVDPDNKTMIKNYGLHYLKAGIAAQKAGKVEEAEECFKKVIPLDHKTYKTNALYSLGVLCYNDGANILKKAAPLANSDADKYAAEKEKADGRFKEAIGYLEEATKVSPEDTKSKTMLSQVQAAMK | not soluble
MGSDKIHHHHHHMSSFSLDFSLGTFQPLAAKMRPQTLKQYCGQEHLIGAGKPLYKAIENGHIHSMIFWGPPGTGKTTLAEIIAQQIHAQVERISAVTAGVKEIRESIERAKQNRLMGQQTILFVDEVHRFNKTQQDAFLPHIENGTIIFIGATTENPSFELNNALLSRVKVYILKPLTTSNIVTVLQNAIQDAEQGLGKERLIFAENVLETLAEYVNGDARLALNCLELMVDMADETEKGKLINHHLLTEVLGERQARFDKQGDRFYDLISALHKSIRGSAPDAALYWYARIITAGGDPLYVARRLLAIASEDVGNADPRAMQVALAAWDCFTRVGAAEGERAIAQAIVYLAVAPKSNAVYVAFKQAKKLAKEMPDYDVPVHLRNAPTHLMKELGYGAEYRYAHDEPNAYAAGEIYFPEELKNTKFYFPTDRGLEIQLKEKLARLHNLDEQSTKKRYK | not soluble
MSLKKEVVVIGGGIVGLSCAYSMHKLGHKVCVIEKNDGANGTSFGNAGLISAFKKAPLSCPGVVLDTLKLMLKNQAPLKFHFGLNLKLYQWILKFVKSANAKSTHRTMALFERYGWLSIDMYHQMLKDGMDFWYKEDGLLMIYTLEESFEKKLKTCDNSGAYKILSAKETKEYMPVVNDNICGSVLLTENAHVDPGEVMHSLQEYLQNVGVEFLYNEEVIDFEFKNNLIEGVITHKEKIQAETIILATGANPTLIKKTKNDFLMMGAKGYSITFKMPEELKPKTSSLFADIFMAMTPRRDTVRITSKLELNTNNALIDKEQIANMKKNLAAFTQPFEMKDAIEWCGFRPLTPNDIPYLGYDKRYKNLIHATGLGWLGITFGPAIGKIIANLSQDGANEKNADIMLFSAFFRDEGHHHHHH | not soluble
MGSDKIHHHHHHMEKLYEIYTGGAEDSFEVGKLLFEENSWQLYLTLDELGRDDSLLLIRKPAVTRLLDQSDYLAEIQRRRKMLTQKGLADPFKLEDKVTLIKSVGSFMDLLPGQVVYFGLEGEDYQQWGYIDEISAGQVNFAAYPSGKYRPFAGEVAVSQLRRLAAFSGEWLLDNPKLRDTEDTTVDGLREVHLKEDPASFAVGRLLCADDDFSLYLTVDEIGRDDSLLLVKKLAVDRVIDQSEYLQDTSRCRRQLKEKGLEDPFEVQGKAANIKQMQDFWRLAAGQVVSFVMKDEEEAEYGILKSKEGDALSFGQYPSGKYETFAGQISLVEVDRLEAFGGELTLENNNC | not soluble
MGSDKIHHHHHHMAQMTSQTLYQALWNSADILRSKMDASEYKNYLLGLIFYKYLSDRMVVYASDQLEEKTTDLDKAQQIYTDAYNDKDLHDDLISNVSDEFGYHIQPDLTFTALIDKIDHGTFQLEDLSQSFRDIEQSSEFFSGLFEDVDLYSRKLGATPQKQNQVISDVMKQISTLDLVGQNTNDILGDAYEYLIGQFASDSGKNAGEFYTPQSVSRLITQIAMHGKEDVRGFTIYDPTMGSGSLLLNARRYSNERLSINYFGQELNTSTYNLARMNMILHGVPINNQHLHNADTLDQDWPIEEPTNFDAVVMNPPYSAHWQPSKGTENDPRFVSYGLAPKSKADFAFLLHGYYHLKDTGVMCIVLPHGVLFRGGAEGRIRKALLENGAIDTVIGLPANIFFNTSIPTTVTVLKKSRTTRDVLFIDASKEFEKAKNQNHLTDDNIQKILETCINRKDVDKYAHLASFDEIKENDFNLNIPRYVDTTEPEKPVDVVKVVADIKKNDEEIARLSSELAKNFDDLVANNDEAAKQLTALKELFKNE | not soluble
MIKNPILRGFNPDPSICRADTDYYIATSTFEWFPGVQIHHSKDLVNWHLVAHPLNRTSLLDMKGNPNSGGIWAPDLSYHDGKFWLIYTDVKVTDGMWKDCHNYLTTCESVDGVWSDPITLNGSGFDASLFHDNDGKKYLVNMYWDQRTYNHNFYGIVLQEYSDKEKKLIGKAKIIYKGTDIKYTEGPHIYHIGDYYYLFTAEGGTTYEHSETVARSKNIDGPYEIDPEYPLLTSWHDPRNSLQKCGHASLVHTHTDEWYLAHLVGRPLPVGNQPVLEQRGYCPLGRETSIQRIEWVDNWPRVVGGKQGSVNVEAPKIPEVKWEKTYDEKDNFDSDKLNINFQSLRIPLTENIASLKAKKGNLRLYGKESLTSTFTQAFIARRWQSFKFDASTSVSFSPDTFQQAAGLTCYYNTENWSTIQVTWNEDKGRVIDIVCCDNFHFDMPLKSNVIPIPKDVEYIHLKVEVRVETYQYSYSFDGINWSKVPAIFESRKLSDDYVQGGGFFTGAFVGINCIDITGNNKPADFDYFCYKEL | soluble
QMNYEEVIKKYRGEENFDHAAYDWRLHSGVTPVKDQKNCGSCWAFSSIGSVESQYAIRKNKLITLSEQELVDCSFKNYGCNGGLINNAFEDMIELGGICPDGDYPYVSDAPNLCNIDRCTEKYGIKNYLSVPDNKLKEALRFLGPISISVAVSDDFAFYKEGIFDGECGDQLNHAVMLVGFGMKEIVNPLTKKGEKHYYYIIKNSWGQQWGERGFINIETDESGLMRKCGLGTDAFIPLIE | soluble
